B1: LaG94-4 (VHH)
VHH: DVQLVESGGGLVQAGGSLRLSCAASGDTSSIHFWEWYRQAPGKQRELVATANNGDFTHLQDSVKGRFTISKDNAKSTVYLQMNDLKPEDTAVYLCYARSYSNSNFWGQGTQVTVS
B2: LaG94-2 (VHH)
VHH: DVQLVESGGALVQAGGSLRLSCEFSGGTFNLYGIGWFRQAPEQDHEFVAGVSRYGSTYESVSVKGRFTSSRDNAKNSAYLEMNTLKPEDTGVYTCAATVREQVPTNFGSYIYRGQGTQVTVS
B3: LaG94-3 (VHH)
VHH: QVQLVESGGGLVQAGGSLRLSCTASGGTVSSSGMGWFRQSSGNDRDFVAFITPTGPTTWYEESVNSRFTVSRDNAKNTIYLQMKSLRPEDTAIYYCAAGNIGRDSRTYPYWGQGTQVTVS
B4: LaG94-6 (VHH)
VHH: QVQLVESGGGAVQAGGSLRLSCAASGLTFSLYTMGWFRQAPEKEPEFVAYISKSGDTTTYADSVKGRFTIGRDNAKSTVYLQMNSLKSEDTAVYYCAASIKREITPNSIYRGQGTQVTVS
B5: LaG94-9 (VHH)
VHH: QVQLVESGGGLVQPGGSLRLSCAASGGTFDTHTMGWFRQAPGKQREFVSAIRLHGVGTYYADSVKGRFTISRENAKNTVHLQMNNLKPEDTAVYYCAADRNWSRATEKEEYDYWGQGTQVTVS
B6: LaG94-1 (VHH)
VHH: QVQLVESGGGLVQTGDSLRLSCRASGLTLSVYSTGWFRQAPGKEHENVAWISRSGDETYYEDSVKGRFTISRDNAKNTVYLQMNDLKPEDMARYYCAASNRGRTTAWNLYIYRGQGTQVTVS
B7: LaG94-8 (VHH)
VHH: QVQLVESGGGLVQAGGSLRLSCAASGRTFMNYAMGWFRQAPGKGREFVASISWTGETSTYADFVKGRFTISRDNAKNTVYLQMDSLKPEDTAVYRCAAKRATDFDDTVREAAEADYWGQGTQVTVS
B8: LaG94-12 (VHH)
VHH: QVQLVESGGRLVQAGGSLRLSCAVSGGTFSLYSLGWFRQAPGKEREFVAAFSREDGTTSFADSVKGRFTMFRDGTKNTVYLQMNSLKQEDTAVYSCAATVRAQPSYSWSSYVYRGLGTQVTVS
B9: LaG94-18 (VHH)
VHH: QVQLVESGGGLVQAGGSLRLSCVASGRTFSTSAMAWWRQAPGKEREFVAAISWNVGTTYYPDSVKGRFTISRDKAQNAVYLQMNSLKPEDTAVYYCAARVTGYFGDQVRRADDYRYWGQGTQVTVS
B10: LaG94-10 (VHH)
VHH: QVQLVESGGGLVQAGGSLRLSCAASGLTLRVYDVTWFRQAPGKEREFVGTVNRNGVVTDYADSVKGRFTISRDNPKNTIYLQMNSLKPEDTAVYYCAAKTRPKLSTLWDEYIYRGQGTQVTVS
B11: LaG94-15 (VHH)
VHH: QVQLVESGGGAVQSGGSLSLSCAASGGIRSISAMTWFRQAPGREREFVAAVTRTLGTTYYTDSVKGRFTISRDSVKGTLYLRMNNMRPEDAAVYYCAARTRGFSTKVALETTDGMDYWGKGTLVTVS
B12: LaG94-5 (VHH)
VHH: QVQLAESGGGLVQAGGSLRLSCAASGRTFAMGWFRRAPGKEREFVASMSRSGLDTHYADSVKGRFTISRDNALNTVYLQTDSLKPEDTGDYFCAVGLRYWSLSGDYIRREKYDVWGQGTQVTVS

These binders were tested against GFP [GFP: P42212] (assay: SPR; GFP immobilised by EDC/NHS coupling (ProteOn XPR36, GLC chip, 5 ug/ml in 10 mM sodium acetate pH 5.0; or Biacore 8K, CM5 chip, 5 ug/ml, pH 5.5); nanobody as analyte; 20 mM Na-Hepes pH 7.4, 150 mM NaCl, 0.05% Tween 20; Langmuir binding model).

First: B1
Second: B2
The Kd of the first is 7.3-fold lower: 3700 pM for the first, 27000 pM for the second.

Going from B3 to B4, the Kd falls from 130 pM to 83 pM (1.6-fold). The second binds more tightly here.

B5 and B6 are within 1.5-fold of each other in Kd: 21 pM for the first, 16 pM for the second.

B7 and B8 are within 1.5-fold of each other in Kd: 210 pM for the first, 300 pM for the second.

Compared with B9, B10 is 100-fold lower in Kd: 920 pM for the first, 9 pM for the second.

B11 and B12 cannot be ordered by Kd: under 0.14 pM for the first, under 0.89 pM for the second.
